Results on five molecules are retold here after PMC12955825 (Med (New York, N.Y.), 2025).

Bridge positions count the residues as written; N and C are the ends. Ends that are not written are not given here.

Test [1] has as its target T1, CALR, human recombinant protein (human, UniProt P27797 18-417).
T1 sequence (looked up): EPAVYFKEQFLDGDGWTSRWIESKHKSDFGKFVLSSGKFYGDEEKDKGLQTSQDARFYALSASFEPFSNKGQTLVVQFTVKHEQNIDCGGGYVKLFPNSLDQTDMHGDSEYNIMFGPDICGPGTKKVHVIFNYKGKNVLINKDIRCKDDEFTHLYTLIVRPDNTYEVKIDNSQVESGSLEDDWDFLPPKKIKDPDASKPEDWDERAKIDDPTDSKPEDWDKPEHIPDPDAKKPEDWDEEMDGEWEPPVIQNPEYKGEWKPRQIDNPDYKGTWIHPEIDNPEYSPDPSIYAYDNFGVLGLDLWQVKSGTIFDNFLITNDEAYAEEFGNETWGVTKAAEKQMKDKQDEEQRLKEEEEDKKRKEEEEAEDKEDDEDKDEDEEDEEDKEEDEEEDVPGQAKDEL
Briefly: circular dichroism. In general terms: Circular dichroism is the unequal absorption of left and right circularly polarised light.

The target of test [2] is T2, histidine-rich glycoprotein (human, UniProt P04196 19-525).
T2 sequence (looked up): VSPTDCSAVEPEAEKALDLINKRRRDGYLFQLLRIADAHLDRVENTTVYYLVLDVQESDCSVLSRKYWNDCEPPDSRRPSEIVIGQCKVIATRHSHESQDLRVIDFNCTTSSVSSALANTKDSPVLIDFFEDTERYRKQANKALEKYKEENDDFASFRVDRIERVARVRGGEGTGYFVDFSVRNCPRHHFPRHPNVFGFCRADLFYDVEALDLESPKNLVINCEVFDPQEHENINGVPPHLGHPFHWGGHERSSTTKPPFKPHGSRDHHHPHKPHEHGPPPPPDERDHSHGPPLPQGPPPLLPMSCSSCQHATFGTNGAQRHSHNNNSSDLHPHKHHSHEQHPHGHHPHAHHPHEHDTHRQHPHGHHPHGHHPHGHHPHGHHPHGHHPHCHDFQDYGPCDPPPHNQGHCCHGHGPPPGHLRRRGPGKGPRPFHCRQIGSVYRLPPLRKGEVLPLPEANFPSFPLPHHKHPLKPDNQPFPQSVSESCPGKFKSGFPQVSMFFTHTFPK
Description: phage-binding assay.

Test [3] has as its target HSP27, human recombinant protein (human, UniProt P04792 1-205). Briefly: phage-binding assay.
The target in a further test is T3, cystatin-A (human, UniProt P01040 1-98).
T3 sequence (looked up): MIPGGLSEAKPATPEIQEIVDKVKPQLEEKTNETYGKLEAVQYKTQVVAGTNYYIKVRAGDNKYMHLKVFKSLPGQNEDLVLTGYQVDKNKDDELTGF
Briefly: phage-binding assay.

Test [4] concerns the target T4, CASQ1, human recombinant protein (human, UniProt P31415 35-396).
T4 sequence (looked up): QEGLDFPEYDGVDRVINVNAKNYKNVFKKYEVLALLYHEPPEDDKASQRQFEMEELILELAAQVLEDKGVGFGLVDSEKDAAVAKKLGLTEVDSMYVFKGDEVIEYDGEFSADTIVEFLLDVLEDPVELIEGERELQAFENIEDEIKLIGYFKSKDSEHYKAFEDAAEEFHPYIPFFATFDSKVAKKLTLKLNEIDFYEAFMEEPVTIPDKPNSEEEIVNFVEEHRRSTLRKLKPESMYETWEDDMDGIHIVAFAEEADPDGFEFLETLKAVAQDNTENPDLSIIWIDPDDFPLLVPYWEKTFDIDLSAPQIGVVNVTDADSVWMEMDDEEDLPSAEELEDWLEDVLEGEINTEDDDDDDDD
Description: phage-binding assay.

Sequence of HSP27, human recombinant protein (P04792 whole entry): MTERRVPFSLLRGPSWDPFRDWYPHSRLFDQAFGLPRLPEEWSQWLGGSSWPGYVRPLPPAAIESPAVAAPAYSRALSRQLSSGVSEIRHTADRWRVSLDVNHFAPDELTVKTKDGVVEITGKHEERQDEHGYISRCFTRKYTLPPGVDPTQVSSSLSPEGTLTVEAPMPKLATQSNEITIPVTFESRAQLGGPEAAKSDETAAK

Take CRQRPASGC (disulfide 1-9) [CRQRPASGC peptide (C1-C9 disulfide bridge)]: the binding result in test [1] is on record as “binds”.

For the molecule CVGQVGGRRC (disulfide 1-10) [CVGQVGGRRC-displaying phage], the binding result in test [2] was “binds”.

Regarding CSEIGVRAC (disulfide 1-9) [CSEIGVRAC peptide (C1-C9 disulfide bridge)], the binding result in test [3] is recorded as “binds”.

Consider CEARASGSRC (disulfide 1-10) [CEARASGSRC-displaying phage], for which, in the test with cystatin-A, the binding result was “binds”.

For CLRGFPALVC (disulfide 1-10) [CLRGFPALVC peptide (C1-C10 disulfide bridge)], the binding result in test [4] is “binds”.
